Results published in the supplement of paper PMC12667976.

B1: library; numbered along this chain (parent)
chain: MATDAALRRLLRLHRTEIAVAVDSAFPLLHALADHDVVPEDKFQETLHLKEKEGCPQAFHALLSWLLTQDSTAILDFWRVLFKDYNLERYGRLQPILDSFPKDVDLSQPRKGRKPPAVPKALVPPPRLPTKRKASEEARAAAPAALTPRGTASPGSQLKAKPPKKPESSAEQQRLPLGNGIQTMSASVQRAVAMSSGDVPGARGAVEGILIQQVFESGGSKKCIQVGGEFYTPSKFEDSGSGKNKARSSSGPKPLVRAKGAQGAAPGGGEARLGQQGSVPAPLALPSDPQLHQKNEDECAVCRDGGELICCDGCPRAFHLACLSPPLREIPSGTWRCSSCLQATVQEVQPRAEEPRPQEPPVETPLPPGLRSAGEEVRGPPGEPLAGMDTTLVYKHLPAPPSAAPLPGLDSSALHPLLCVGPEGQQNLAPGARCGVCGDGTDVLRCTHCAAAFHWRCHFPAGTSRPGTGLRCRSCSGDVTPAPVEGVLAPSPARLAPGPAKDDTASHEPALHRDDLESLLSEHTFDGILQWAIQSMARPAAPFPS

Variants of: B1
Experiment: AIRE transcriptional activation functional score (insulin promoter-GFP; nonsense median 0, synonymous median 1) (normalised score); higher = higher AIRE activity (more reporter activation)
Conditions: with insulin promoter-GFP reporter in HEK293
Procedure: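 Deep mutational scan of full-length human AIRE (codon-optimized cDNA, DT-POPCode NNN libraries over three regions) integrated at a Bxb1 landing pad in HEK293 cells carrying an insulin core promoter-GFP reporter at a Flp-In site. Cells were sorted for the top 10% GFP about 14 days after transfection. Variant frequency log-ratios (select vs non-select, TileSeq) were rescaled so that the nonsense median is 0 and the synonymous median is 1, then averaged over biological replicates.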

AIRE transcriptional activation functional score of substitutions, site by site:
S287: H 0.964; I 1.07; K 0.385; L 1.38; M 1.29; N 1.13; P 0.464; Q 1.24; R 1.04; T 1.44; V 0.972; W 1.12; Y 1.17
D288: A 1.19; C 1.26; E 0.565; F 1.5; G 1.14; H 0.855; I 1.38; K 0.535; L 1.19; M 1.31; N 0.786; P 1.15; Q 0.949; R 1.08; S 1.24; T 0.903; V 1.14; W 1.59; Y 1.23
P289: A 0.95; C 1.08; D -0.468; E 0.531; F 0.919; G 1.14; H 1.22; K 1.39; L 0.891; M 1.35; N 0.167; Q 0.942; R 1.19; S 1.3; T 1.37; V 1.09; W 1.43
Q290: A 0.939; C 0.819; E 0.67; F 1.21; G 1.02; H 0.981; I 0.465; K 0.932; L 0.646; M 1.27; N 1.19; P 0.267; R 1.2; S 0.97; T 0.55; V 1.04; W 1.1; Y 1.48
L291: A 0.566; C 1.01; D 0.351; E 0.759; F 1.15; G 1.06; H 0.333; I 0.864; K 0.675; M 1.29; N 0.0689; P 1.26; Q 0.902; R 0.656; S 1.1; T 0.708; V 1.03; W 0.706; Y 1.69
H292: A 0.816; C 0.815; D 0.892; E -0.172; F 0.915; G 1.12; I 0.603; K 0.992; L 0.55; M 1.7; N 1.03; P 0.865; Q 0.508; R 0.856; S 0.599; T 1.13; V 0.936; W 1.03; Y 0.957
Q293: A 0.738; C 0.906; D 0.479; E 1.33; F 1.1; G 1; H 1.18; I 0.523; K 1.16; L 1.08; M 0.829; N 0.746; P 0.602; R 0.982; S 0.559; T -0.386; V 0.932; W 1.35; Y 0.958
K294: A 0.459; C 1; E 0.357; F 0.447; G 0.728; H 0.554; I 0.609; L 0.857; M 0.969; N 0.937; P 1.21; Q 1.43; R 1.17; S 0.706; T 0.822; V 0.546; W -0.487; Y 0.634
N295: A 0.906; C 1.01; D 0.921; E 1.27; F 0.892; G 0.969; H 0.879; I 0.856; K 1.03; L 1.17; M -0.37; P 1.05; Q 0.995; R 0.795; S 0.92; T 1.14; V 1.09; W 0.869; Y 1.08
E296: A 0.699; C 0.394; D 0.711; F 1.09; G 1.03; H 1.76; I 0.711; K 0.642; L 0.781; M 1.14; N 1.28; P 0.799; Q 1.06; R 0.658; S 0.991; T 0.948; V 0.556; W 1.44; Y 0.486
D297: A 0.963; C 0.929; E 0.884; F 0.8; G 0.852; H 0.894; I 0.487; K 1.49; L 0.697; M 0.682; N 0.25; P 1.29; Q 1.32; R 0.34; S 0.838; T 0.153; V 0.909; W 0.671; Y 0.771
E298: A 0.0161; C -0.0529; D 0.987; F 0.727; G 1.13; H -2.02; I 1.03; K 1.07; L 0.839; M 0.204; N 1.56; P 0.696; Q 1.15; R 0.634; S 0.818; T 0.228; V 0.91; W 1.13; Y 0.785
C299: A 0.615; D 0.505; E 0.32; F 0.664; G 0.55; H 0.488; I 0.55; K 0.668; L 0.726; M 0.737; N 0.262; P 0.634; Q 0.508; R 0.523; S 0.703; T 0.711; V 0.501; W 0.647; Y 0.416
A300: C 1.39; D 1.26; E 0.84; F 1.57; G 0.768; H 0.907; I 1.11; K 1.08; L 0.917; N 0.883; P 1.05; Q 0.413; R 1.14; S 0.968; T 0.981; V 1.09; W 1.22; Y 0.856
V301: A 1.01; C 1.08; D 0.644; E 1.05; F 1.29; G 1.08; H 1.56; I 0.84; K 1.09; L 1.01; M 0.84; N 0.743; P 0.662; Q 1.08; R 1.34; S 1; T 0.963; W 2; Y 1.14
C302: A 0.669; D 0.537; E 0.654; F 0.63; G 0.54; H 0.701; I 0.572; K 0.3; L 0.555; N 0.531; P 0.251; Q 0.705; R 0.411; S 0.665; T 0.263; V 0.651; W 0.72; Y 0.467
R303: A 0.349; C 1.23; D 0.544; E 0.933; F 1.47; G 1.34; H 1.12; I 1.32; K 1.13; L 1.12; M 1.28; N 1.04; P 1.09; Q 1.23; S 0.997; T 1.36; V 1.16; W 1.02; Y 0.774
D304: A 0.858; C 1.29; E 0.883; F 0.0957; G 0.56; H 1.13; I 0.384; K 1.11; L 0.299; M 1.31; N 0.503; P 0.387; R 0.879; S 1.42; T 1.15; V 0.99; W 1.21; Y 0.808
G305: A 0.453; C 1.06; D 1.1; E 0.782; F 0.497
